Test results taken from patent publication US20240117061A1 (WUHAN YZY BIOPHARMA, published 2024).

How the values were obtained:
[1] = molecular target: T1, recombinant human BCMA-huFc fusion protein (human); test: indirect ELISA, coated antigen
T1 construct: also called huBCMA-huFc
Experimental: (§1) Procedures: Human, mouse and monkey BCMA antigens were prepared into 0.5 μg/mL coating solutions with PBS buffer. The coating solutions were added to a microplate at 100 μL/well and incubated at 4° C. overnight. The residual coating solution was discarded before 3% BSA was added at 300 μL/well, and the plate was blocked for 3 h at room temperature. The microplate was washed once with PBST (PBS containing 0.1% of TWEEN 20) at 300 μL/well. The three mouse BCMA antibodies were serially 3-fold diluted from 10 μg/mL to the 7th concentration. The dilutions were added to the microplate at 100 μL/well. After a 1-h incubation at room temperature, the microplate was washed thrice with PBST at 300 μL/well. The HRP goat anti-mouse IgG antibody was 25,000-fold diluted with 1% BSA-PBST and added at 100 μL/well. After another 1-h incubation at room temperature, the microplate was washed thrice with PBST at 300 μL/well and dried. The TMB chromogenic solution was added at 100 μL/well. After a 5-min reaction at room temperature, 2 M H₂SO₄ was added at 100 μL/well to terminate the reaction. The microplate was placed on a microplate reader (Molecular Devices, SPECTRA Max plus 384) and the absorbance OD450 value was read at 450 nm wavelength.

[2] = molecular target: T2, recombinant cynomolgus monkey BCMA-huFc (cynomolgus monkey; human); test: indirect ELISA, coated antigen
T2 construct: also called cynoBCMA-huFc
Experimental: as §1

[3] = molecular target: T3, human BCMA on cells (NCI-H929, U266B1, HEK293 huBCMA) (human, UniProt Q02223 1-184); test: flow cytometry on U266B1 cells
T3 construct: whole, on cells; also called cell surface BCMA antigen
T3 sequence (looked up): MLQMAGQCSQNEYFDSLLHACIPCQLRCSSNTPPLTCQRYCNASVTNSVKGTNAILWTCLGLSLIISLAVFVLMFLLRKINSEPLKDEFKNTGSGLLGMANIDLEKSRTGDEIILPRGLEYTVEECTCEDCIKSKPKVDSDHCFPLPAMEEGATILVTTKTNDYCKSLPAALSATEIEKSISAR
Experimental: (§2) The affinities of the 3 mouse antibodies for cell surface BCMA antigen were assessed using FACS. Materials: cell lines NCI-H929, U266B1, HEK293 cynoBCMA and HEK293; PBS buffer; FBS (fetal bovine serum; Gibco, 10099141); PE goat anti-mouse IgG Fc (Biolegend, 405307). Procedures: The cells were resuspended in PBS to prepare cell suspensions containing 200,000 cells. Mouse BCMA antibodies were added to a 96-well plate at 50 μL/well and serially 3-fold diluted from 3000 nM. The plate was incubated for 1 h at 4° C. 150 μL of precooled PBS containing 1% of FBS was added into the 96-well plate after the co-incubation with the primary antibody was finished. The mixtures were centrifuged at 300×g for 5 min and the supernatants were discarded. The above procedures were repeated once. The fluorescent secondary antibody PE goat anti-mouse IgG Fc was added at 80 μL/well. The plate was incubated at 4° C. for 30 min. 150 μL of precooled PBS containing 1% of FBS was added into the 96-well plate after the co-incubation with the secondary antibody was finished. The mixtures were uniformly mixed with a pipette. The 96-well plate was centrifuged at 300×g for 5 min in a plate centrifuge and the supernatants were discarded. The above procedures were repeated once. The cells were resuspended in 100 μL of PBS containing 1% of FBS and detected on a flow cytometry (BD Accuri™ C6).

[4] = molecular target: T3, human BCMA on cells (NCI-H929, U266B1, …); test: flow cytometry on NCI-H929 cells
Experimental: as §2

[5] = molecular target: T4, cynomolgus monkey BCMA on HEK293 cynoBCMA cells (cynomolgus monkey, UniProt A0A2K5UD97 1-183); test: flow cytometry on HEK293 cynoBCMA cells; HEK293 cynoBCMA cells
T4 construct: whole, on cells
Experimental: as §2

[6] = molecular target: T5, recombinant human BCMA-his fusion protein (ACRO Biosystem, Cat. No. BCA-H522y) (human, UniProt Q02223 1-54); test: ELISA, coated antigen
T5 construct: extracellular domain; Bought protein; also called huBCMA-his; hu BCMA-his; not shown: His tag
T5 sequence (looked up): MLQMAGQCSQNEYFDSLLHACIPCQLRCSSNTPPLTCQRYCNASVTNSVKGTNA
Experimental: Procedures: huBCMA-his and cynoBCMA-his antigens were prepared into 0.5 μg/mL coating solutions with PBS (pH 7.4). The coating solutions were added to a microplate at 100 μL/well and incubated at 4° C. overnight. The residual coating solution was discarded before 3% BSA was added at 300 μL/well, and the plate was blocked for 3 h at room temperature. The microplate was washed once with PB ST at 300 The stock humanized monoclonal antibody solutions were serially 3-fold diluted to the 11th concentration. The dilutions were added to the microplate at 100 μL/well. After a 1-h incubation at room temperature, the microplate was washed thrice with PBST at 300 The HRP-conjugated 6*His, His-Tag antibody was 25,000-fold diluted with 1% BSA-PBST and added at 100 After another 1-h incubation at room temperature, the microplate was washed thrice with PB ST at 300 μL/well and dried. The TMB chromogenic solution was added at 100 μL. After a 5-min reaction at room temperature, 2 M H2504 was added at 100 μL/well to terminate the reaction. The microplate was placed on a microplate reader (Molecular Devices, SPECTRA Max plus 384) and the absorbance OD450 value was read at 450 nm wavelength.

[7] = molecular target: T6, recombinant human BCMA-mFc fusion protein (human; mouse); test: indirect ELISA, coated antigen
T6 construct: also called huBCMA-mFc
T6 chain: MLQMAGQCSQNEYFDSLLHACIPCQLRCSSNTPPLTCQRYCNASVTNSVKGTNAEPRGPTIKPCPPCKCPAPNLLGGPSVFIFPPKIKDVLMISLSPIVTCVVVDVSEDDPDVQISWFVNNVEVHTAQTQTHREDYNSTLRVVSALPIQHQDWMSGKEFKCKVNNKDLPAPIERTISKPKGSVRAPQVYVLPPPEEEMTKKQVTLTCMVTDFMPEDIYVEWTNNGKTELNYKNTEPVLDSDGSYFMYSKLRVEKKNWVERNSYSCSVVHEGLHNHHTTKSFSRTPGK
Experimental: Procedures: Human, mouse and monkey BCMA antigens were prepared into 0.5 μg/mL coating solutions with PBS buffer. The coating solutions were added to a microplate at 100 μL/well and incubated at 4° C. overnight. The residual coating solution was discarded before 3% BSA was added at 300 μL/well, and the plate was blocked for 3 h at room temperature. The microplate was washed once with PB ST (PBS containing 0.1% of TWEEN 20) at 300 μL/well. The human-mouse chimeric monoclonal antibodies were serially 3-fold diluted from 10 μg/mL to the 9th concentration. The dilutions were added to the microplate at 100 μL/well. After a 1-h incubation at room temperature, the microplate was washed thrice with PB ST at 300 μL/well. The mouse anti-human IgG Fc antibody [HRP] mAb was 25,000-fold diluted with 1% BSA-PBST and added at 100 μL/well. After another 1-h incubation at room temperature, the microplate was washed thrice with PBST at 300 μL/well and dried. The TMB chromogenic solution was added at 100 μL/well. After a 5-min reaction at room temperature, 2 M H₂SO₄ was added at 100 μL/well to terminate the reaction. The microplate was placed on a microplate reader (Molecular Devices, SPECTRA Max plus 384) and the absorbance OD450 value was read at 450 nm wavelength.

[8] = molecular target: T3, human BCMA on cells (NCI-H929, U266B1, …); test: flow cytometry on U266B1 cells; remark: listed apart in the source
Experimental: (§3) Procedures: The cells were resuspended in PBS, and the cell density was adjusted to 2×10^5 cells/well. Human-mouse chimeric monoclonal antibodies were added to a 96-well plate at 50 μL/well and serially 3-fold diluted from 3000 nM to the 9th concentration. The plate was incubated for 1 h at 4° C. 150 μL of precooled PBS containing 1% of FBS was added into the 96-well plate after the co-incubation with the primary antibody was finished. The mixtures were centrifuged at 300×g for 5 min and the supernatants were discarded. The above procedures were repeated once. The fluorescent secondary antibody PE anti-human IgG Fc (Biolegend, 409304) was added at 80 μL/well. The plate was incubated at 4° C. for 30 min. 150 μL of precooled PBS containing 1% of FBS was added into the 96-well plate after the co-incubation with the secondary antibody was finished. The 96-well plate was centrifuged at 300×g for 5 min and the supernatants were discarded. The above procedures were repeated once. The cells were resuspended in 100 μL of PBS containing 1% of FBS and detected on a flow cytometry (BD Accuri™ C6).

[9] = molecular target: T3, human BCMA on cells (NCI-H929, U266B1, …); test: flow cytometry on NCI-H929 cells; remark: listed apart in the source
Experimental: as §3

[10] = molecular target: T3, human BCMA on cells (NCI-H929, U266B1, …); test: flow cytometry on NCI-H929 cells; NCI-H929 cells
Experimental: as §3

[11] = molecular target: T5, recombinant human BCMA-his fusion …; test: SPR (Biacore T200), anti-His capture on CM5, 1:1 fit
Experimental: In this example, the antigen-antibody binding kinetics and affinity were determined by the BIACORE method.
Procedures: The anti-histidine antibody (GE, His capture Kit, Cat. No. 28995056) was conjugated to the Sereis S Sensor Chip CMS to capture the test articles, thus acquiring the binding kinetic and affinity data of the antigen, as an analyte, to the test articles. The initial concentration for detecting the binding of the antigen and the test articles was 10 nM. […] The Start up flushing process (1×HBS-EP+buffer) was performed at least thrice before loading to equilibrate the system. The association and dissociation tendencies between the antigen and the test articles were detected. When the dissociation was completed, a regeneration reagent was loaded for regeneration before the detection of the next concentration was performed. After the detection was finished, the data were fitted by using a 1:1 Binding fitting mode in data analysis software (Biacore T200 Evaluation Software).

[12] = molecular target: T5, recombinant human BCMA-his fusion …; test: competitive ELISA, coated huBCMA-his, competitor APRIL-biotin
Experimental: (§4) The 96-well microplate was treated with 100 μL of 0.5 μg/mL huBCMA-his in PBS and incubated overnight at 4° C. The plate was then washed thrice with PBS washing buffer containing 0.1% of Tween-20 and blocked with 300 μL of PBS containing 1% of BSA for 2 h. 100 μL of each BCMA antibody was added to the plate. […] The plate was incubated at 37° C. for 1 h, and unbound secondary antibody was washed with PBS washing buffer containing 0.1% of Tween-20. The TMB chromogenic solution was added at 100 μL/well. After a 5-min reaction at room temperature, 2 M H₂SO₄ was added at 100 μL/well to terminate the reaction. The microplate was placed on a microplate reader (Molecular Devices, SPECTRA Max plus 384) and the absorbance OD450 value was read at 450 nm wavelength.

[13] = molecular target: T5, recombinant human BCMA-his fusion …; test: competitive ELISA, coated huBCMA-his, competitor 83A10-biotin
Experimental: as §4

[14] = molecular target: T5, recombinant human BCMA-his fusion …; test: competitive ELISA, coated huBCMA-his, competitor 83A10-biotin, antibody at 7 µg/mL

T4 sequence (A0A2K5UD97 entry or part of it): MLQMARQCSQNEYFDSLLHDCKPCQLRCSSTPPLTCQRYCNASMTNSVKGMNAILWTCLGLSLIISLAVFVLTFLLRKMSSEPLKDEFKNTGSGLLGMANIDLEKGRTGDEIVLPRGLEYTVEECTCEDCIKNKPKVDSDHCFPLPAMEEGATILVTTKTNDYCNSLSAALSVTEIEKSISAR
T2 sequence (chain, as listed by the source limits assumed): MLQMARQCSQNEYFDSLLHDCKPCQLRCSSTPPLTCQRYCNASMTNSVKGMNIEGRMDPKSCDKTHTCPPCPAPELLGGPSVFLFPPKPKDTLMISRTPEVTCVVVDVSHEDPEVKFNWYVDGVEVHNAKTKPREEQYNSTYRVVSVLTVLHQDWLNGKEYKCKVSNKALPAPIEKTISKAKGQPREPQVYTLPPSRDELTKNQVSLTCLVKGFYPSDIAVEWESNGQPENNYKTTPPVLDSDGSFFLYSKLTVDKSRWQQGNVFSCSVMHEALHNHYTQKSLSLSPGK

B1: mouse monoclonal antibody 211B11H10G5 (antibody, V domains shown)
VH: EVQLQQSGPELVKPGASVKILCKASGYTITDYNMDWVKRSHGKSLEWIGNINPHNGGSIYNQKFKGKATLTVDKSSSTAFMELRSLTSEDTAVYYCARGDATLVLDYWGQGTSLTVSS
VL: DIVLTQSPASLAVSLGQRATISCRASKSVSTSGLSYMHWYQQKPGQPPKVLIYLASNLESGVPARFSGSGSGTDFTLNIHPVEEEDAATYYCQHSRELPPTFGAGTKLELK
notes: detected with anti-mouse IgG; also called Clone 211B11H10G5; BCMA-HC3/BCMA-LC3
With B1 the EC50 [1] was 0.0492 nM, the EC50 [2] was 0.0309 nM and the EC50 [3] was 24.5 nM. For the same binder, the EC50 [4] was 11.9 nM and the EC50 [5] was 30.9 nM.

B2: human-mouse chimeric antibody c-mAb1 (antibody, human IgG1, V domains shown)
VH: EVQLQQSGPELVKPGTSVEMSCKASGYTFTDYNIHWVRQRHGESLEWLGYINPNNGVTNFNQKFKGKATLTVNKSSSTAYMELRSLTSDDSAVYYCSSGLFDGYPFPYWGQGTLVTVSA
VL: DIVLTQSPASLVVSLGQRATISCRASKSVSTSGYNYIHWYQQKPGQPPKLLIFLASNLKSGVPARFSGGGSGTDFTLNIHPVEEDDAATYFCQHNRELPYTFGGGTKVEIK
notes: not shown: human IgG1 heavy chain constant region, GenBank No. AK303185.1; human kappa light chain constant region, GenBank No. MG815648.1
Work on B2 yielded an EC50 [6] of 0.00158 nM, an EC50 [7] of 0.647 nM and an EC50 [8] of 1.9 nM. It also gave an EC50 [9] of 7.5 nM, an EC50 [10] of 7.5 nM and a Kd [11] of 0.247 nM. For the same binder, the koff [11] was 0.00202 s⁻¹, the kon [11] was 8.18e+06 M⁻¹ s⁻¹ and the IC50 [12] was 0.0114 µg/mL. For the same binder, the IC50 [13] was 3.16 µg/mL and the competition [14] was 70%.
